# From paper PMC4650570 (Cell Research, 2014)
# Key:
# [1] = molecular target: GST-TcdB-C(1500-2366) (Clostridium difficile, UniProt P18177 1500-2366); test: pull-down
# [2] = molecular target: Clostridium difficile toxin B, His-tagged (TcdB-His) (Clostridium difficile, UniProt P18177 1-2366); test: SPR
# Chain of Clostridium difficile toxin B, His-tagged (TcdB-His) (P18177 whole entry): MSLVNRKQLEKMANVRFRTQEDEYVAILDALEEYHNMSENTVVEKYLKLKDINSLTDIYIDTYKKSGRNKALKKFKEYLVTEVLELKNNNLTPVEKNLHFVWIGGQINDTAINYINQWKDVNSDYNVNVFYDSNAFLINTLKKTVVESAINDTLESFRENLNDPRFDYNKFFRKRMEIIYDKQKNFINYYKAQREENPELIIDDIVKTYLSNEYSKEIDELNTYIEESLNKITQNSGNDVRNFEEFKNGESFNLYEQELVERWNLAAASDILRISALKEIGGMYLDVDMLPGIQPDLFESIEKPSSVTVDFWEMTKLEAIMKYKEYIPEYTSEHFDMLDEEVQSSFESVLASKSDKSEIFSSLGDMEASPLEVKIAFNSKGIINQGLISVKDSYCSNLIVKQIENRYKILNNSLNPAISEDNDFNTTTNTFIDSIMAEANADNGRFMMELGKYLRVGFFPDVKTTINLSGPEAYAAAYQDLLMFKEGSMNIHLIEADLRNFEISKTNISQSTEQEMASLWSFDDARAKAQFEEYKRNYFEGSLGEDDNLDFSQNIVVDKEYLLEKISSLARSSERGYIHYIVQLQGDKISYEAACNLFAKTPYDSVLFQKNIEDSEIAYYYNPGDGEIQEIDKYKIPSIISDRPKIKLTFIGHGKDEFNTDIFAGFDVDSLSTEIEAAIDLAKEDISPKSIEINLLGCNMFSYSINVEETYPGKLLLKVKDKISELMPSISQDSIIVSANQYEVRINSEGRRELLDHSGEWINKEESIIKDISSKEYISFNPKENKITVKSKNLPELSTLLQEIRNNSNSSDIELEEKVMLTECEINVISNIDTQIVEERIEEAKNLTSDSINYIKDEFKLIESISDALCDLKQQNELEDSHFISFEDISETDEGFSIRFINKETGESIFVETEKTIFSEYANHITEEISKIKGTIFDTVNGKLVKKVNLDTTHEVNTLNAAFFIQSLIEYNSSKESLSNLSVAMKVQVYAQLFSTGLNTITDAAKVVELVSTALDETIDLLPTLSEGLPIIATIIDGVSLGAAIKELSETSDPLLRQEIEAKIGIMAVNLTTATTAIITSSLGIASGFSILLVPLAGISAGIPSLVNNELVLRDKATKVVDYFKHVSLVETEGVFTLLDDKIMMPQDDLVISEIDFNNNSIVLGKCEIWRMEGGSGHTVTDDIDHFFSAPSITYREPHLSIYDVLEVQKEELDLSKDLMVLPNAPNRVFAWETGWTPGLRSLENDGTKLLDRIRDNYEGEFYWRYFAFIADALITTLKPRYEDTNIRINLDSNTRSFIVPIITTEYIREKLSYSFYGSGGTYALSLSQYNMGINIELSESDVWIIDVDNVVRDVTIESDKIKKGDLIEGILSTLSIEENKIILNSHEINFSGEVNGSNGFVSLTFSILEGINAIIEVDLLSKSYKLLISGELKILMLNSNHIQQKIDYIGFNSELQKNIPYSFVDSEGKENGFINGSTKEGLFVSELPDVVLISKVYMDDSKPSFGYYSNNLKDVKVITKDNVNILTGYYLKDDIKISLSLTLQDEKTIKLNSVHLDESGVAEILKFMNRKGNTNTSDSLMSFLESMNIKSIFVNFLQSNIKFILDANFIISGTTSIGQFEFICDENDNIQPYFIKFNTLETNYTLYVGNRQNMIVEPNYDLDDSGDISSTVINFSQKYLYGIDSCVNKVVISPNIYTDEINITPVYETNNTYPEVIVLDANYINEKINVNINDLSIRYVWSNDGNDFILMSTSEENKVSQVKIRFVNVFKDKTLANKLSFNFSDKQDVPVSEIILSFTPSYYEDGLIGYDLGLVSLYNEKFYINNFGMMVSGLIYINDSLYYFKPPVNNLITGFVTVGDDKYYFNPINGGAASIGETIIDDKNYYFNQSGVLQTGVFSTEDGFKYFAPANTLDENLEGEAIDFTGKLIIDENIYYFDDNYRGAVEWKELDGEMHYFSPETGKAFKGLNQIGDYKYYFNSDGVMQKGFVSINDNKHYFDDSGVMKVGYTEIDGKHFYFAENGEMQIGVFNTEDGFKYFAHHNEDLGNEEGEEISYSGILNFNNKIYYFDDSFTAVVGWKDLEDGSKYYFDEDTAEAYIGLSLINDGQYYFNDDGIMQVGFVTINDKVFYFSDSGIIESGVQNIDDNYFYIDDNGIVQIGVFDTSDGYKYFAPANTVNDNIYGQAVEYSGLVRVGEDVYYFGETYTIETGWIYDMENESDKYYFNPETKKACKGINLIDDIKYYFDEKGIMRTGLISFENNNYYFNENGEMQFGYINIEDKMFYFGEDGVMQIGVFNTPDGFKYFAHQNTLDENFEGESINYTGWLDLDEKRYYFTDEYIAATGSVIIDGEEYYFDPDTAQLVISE
# Chain of GST-TcdB-C(1500-2366) (P18177 1500-2366): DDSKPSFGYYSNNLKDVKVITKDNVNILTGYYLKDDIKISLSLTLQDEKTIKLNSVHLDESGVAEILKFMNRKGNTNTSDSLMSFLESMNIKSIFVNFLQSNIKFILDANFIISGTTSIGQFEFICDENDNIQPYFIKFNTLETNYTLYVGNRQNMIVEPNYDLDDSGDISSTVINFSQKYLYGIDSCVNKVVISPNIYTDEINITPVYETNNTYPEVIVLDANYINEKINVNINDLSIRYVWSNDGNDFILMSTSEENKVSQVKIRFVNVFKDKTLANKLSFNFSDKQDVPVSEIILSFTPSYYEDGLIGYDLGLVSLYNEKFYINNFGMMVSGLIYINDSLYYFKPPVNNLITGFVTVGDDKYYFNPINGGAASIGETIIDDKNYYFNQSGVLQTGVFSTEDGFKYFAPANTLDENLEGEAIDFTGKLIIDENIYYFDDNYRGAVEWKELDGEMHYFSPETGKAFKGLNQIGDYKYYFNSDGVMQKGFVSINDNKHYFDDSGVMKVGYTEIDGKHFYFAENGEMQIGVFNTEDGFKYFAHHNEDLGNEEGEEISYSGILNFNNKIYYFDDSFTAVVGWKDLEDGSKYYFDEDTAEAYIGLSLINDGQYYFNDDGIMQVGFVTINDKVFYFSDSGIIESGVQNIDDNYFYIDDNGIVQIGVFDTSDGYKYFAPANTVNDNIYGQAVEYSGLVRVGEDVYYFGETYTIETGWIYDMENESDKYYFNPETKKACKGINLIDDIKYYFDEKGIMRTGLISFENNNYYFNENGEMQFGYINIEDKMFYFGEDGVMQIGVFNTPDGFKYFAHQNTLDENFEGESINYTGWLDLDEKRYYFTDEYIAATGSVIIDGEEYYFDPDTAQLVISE
Binder,binding result [1],Kd [2] [nM]
CSPG4-N(30-640)-Fc (Fc fusion) ASFFGENHLEVPVATALTDIDLQLQFSTSQPEALLLLAAGPADHLLLQLYSGRLQVRLVLGQEELRLQTPAETLLSDSIPHTVVLTVVEGWATLSVDGFLNASSAVPGAPLEVPYGLFVGGTGTLGLPYLRGTSRPLRGCLHAATLNGRSLLRPLTPDVHEGCAEEFSASDDVALGFSGPHSLAAFPAWGTQDEGTLEFTLTTQSRQAPLAFQAGGRRGDFIYVDIFEGHLRAVVEKGQGTVLLHNSVPVADGQPHEVSVHINAHRLEISVDQYPTHTSNRGVLSYLEPRGSLLLGGLDAEASRHLQEHRLGLTPEATNASLLGCMEDLSVNGQRRGLREALLTRNMAAGCRLEEEEYEDDAYGHYEAFSTLAPEAWPAMELPEPCVPEPGLPPVFANFTQLLTISPLVVAEGGTAWLEWRHVQPTLDLMEAELRKSQVLFSVTRGARHGELELDIPGAQARKMFTLLDVVNRKARFIHDGSEDTSDQLVLEVSVTARVPMPSCLRRGQTYLLPIQVNPVNDPPHIIFPHGSLMVILEHTQKPLGPEVFQAYDPDSACEGLTFQVLGTSSGLPVERRDQPGEPATEFSCRELEAGSLVYVHRGGPAQDLTF,binds,–
CSPG4-N(401-560)-Fc (Fc fusion) LAPEAWPAMELPEPCVPEPGLPPVFANFTQLLTISPLVVAEGGTAWLEWRHVQPTLDLMEAELRKSQVLFSVTRGARHGELELDIPGAQARKMFTLLDVVNRKARFIHDGSEDTSDQLVLEVSVTARVPMPSCLRRGQTYLLPIQVNPVNDPPHIIFPHG,–,28.9 ± 0.7
